According to US20230365703A1:

Assays:
[1] = target: human CD47-Fc chimeric protein (human) (UniProt Q08722); experiment: SPR (Biacore T200), human CD47-Fc captured on anti-human IgG (Fc) CM5 chip, analyte 50 nM, bivalent analyte model
[2] = target: CD47 on CD47-transfected CHO-K1 cells (Homo sapiens (Human)) (UniProt Q08722); experiment: flow cytometry on CD47-transfected CHO-K1 cells (CD38-/CD47+), anti-human IgG-FITC detection
[3] = target: IL12 receptors on H_IL12 Reporter 293 cells (UniProt P42701); experiment: cell-based or functional assay
Chain of IL12 receptors on H_IL12 Reporter 293 cells (Q99665 24-862 limits assumed, chain 2 of 2, other chains not shown): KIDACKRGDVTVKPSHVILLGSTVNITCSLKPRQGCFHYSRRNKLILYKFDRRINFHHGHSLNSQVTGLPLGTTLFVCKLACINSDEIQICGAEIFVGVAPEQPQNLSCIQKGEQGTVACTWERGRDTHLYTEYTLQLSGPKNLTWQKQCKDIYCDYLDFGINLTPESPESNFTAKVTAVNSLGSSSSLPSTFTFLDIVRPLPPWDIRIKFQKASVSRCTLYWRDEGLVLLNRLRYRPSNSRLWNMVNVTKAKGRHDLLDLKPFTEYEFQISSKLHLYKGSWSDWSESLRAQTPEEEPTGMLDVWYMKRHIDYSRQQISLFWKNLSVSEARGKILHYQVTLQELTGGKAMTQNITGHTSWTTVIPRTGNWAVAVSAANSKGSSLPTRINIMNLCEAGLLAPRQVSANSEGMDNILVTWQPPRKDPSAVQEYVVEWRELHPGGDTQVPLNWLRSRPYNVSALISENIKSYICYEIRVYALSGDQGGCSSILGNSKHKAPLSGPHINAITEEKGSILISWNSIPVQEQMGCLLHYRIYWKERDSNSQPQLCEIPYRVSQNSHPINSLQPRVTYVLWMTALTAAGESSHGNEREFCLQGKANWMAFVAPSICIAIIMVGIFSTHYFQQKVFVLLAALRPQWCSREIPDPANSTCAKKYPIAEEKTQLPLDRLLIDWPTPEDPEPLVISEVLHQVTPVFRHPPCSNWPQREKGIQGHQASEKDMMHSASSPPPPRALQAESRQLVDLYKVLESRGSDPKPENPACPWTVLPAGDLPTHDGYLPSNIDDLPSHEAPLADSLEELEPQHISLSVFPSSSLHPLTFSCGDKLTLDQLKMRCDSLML

[4] = target: GPC3 on liver cancer cells (HepG2, HuH-7) (UniProt P51654); experiment: flow cytometry on HepG2 cells, Alexa Fluor 488 anti-human IgG; fit value of the flat control curve; unit inferred, unit taken from the axis Con.(nM)

Q: Which Kd [1] does the source give for TTI-621 (Fc fusion) here?
A: Its Kd is 37.3 nM.

Q: And the EC50 (read off the curve) [2]?
A: The EC50 (read off the curve) was 0.8 nM.

Q: How did the EC50 on H IL12 Reporter 293 cells (One-Glo signal; called binding affinity by the filing) [3] turn out when “IL12A and IL12B complex (from UniProt P29459 23-219; P29460 24-328) (ligand)” was run?
A: The EC50 on H IL12 Reporter 293 cells (One-Glo signal; called binding affinity by the filing) was 0.06 nM.

Q: How did the EC50 [4] turn out when “Human IgG1 homotype control (Isotype) (antibody)” was run?
A: Its EC50 is 3.4 nM.
